The series addresses T1, HMGA1 third AT-hook (DBD3) peptide (UniProt P17096 81-89).
T1 chain: RKPRGRPKK
Description: X-ray crystallography; crystals: 5 mM MgCl2, 0.25 mM NiCl2, MPD up to 48%; 1:2 duplex:peptide; 2.27 A; only one of two AATT sites occupied; Crystallization by vapor diffusion: 25 mM Tris-HCl pH 7.5, 25 mM ammonium acetate, 5 mM MgCl2, 0.25 mM NiCl2, 5% MPD (raised to 48%), 0.2 mM DNA, 0.4 mM peptide, 4 C. The settings on record: blunt; self-complementary, 2 copies of the strand.

B1: d(CGAATTAATTCG)2 (dsDNA)
DNA 1: CGAATTAATTCG
DNA 2: CGAATTAATTCG
For B1, the binding result was “binds”.

The values are drawn from publication PMC3353895, “Crystal Structure of a Complex of DNA with One AT-Hook of HMGA1”.
